These results are taken from the nanobody polyreactivity screen of Harvey et al. (2022).

The nature of this data set: yeast display, Sf9 membrane polyspecificity reagent, FACS + sequencing; frameworks hold sequencing errors. Put shortly:
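Synthetic nanobody libraries on Saccharomyces cerevisiae BJ5465 were galactose-induced for 36–48 hours, stained 1 hour at 4 °C with 10% biotinylated, detergent-solubilized Sf9 membrane reagent and enriched on streptavidin microbeads. FACS then separated cells into low and high (top ~1%) gates by anti-HA (expression) and streptavidin (reagent binding) fluorescence. Genes were colony-PCR amplified, MiSeq 2 × 250 sequenced and CDR-length filtered. A clone's polyreactivity label is that of its gate of origin.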
With “QVQLVESGGGLVQAGGSLRLSCAASGSIFRRYAIGWYRQAPGKERELVAAISGRGGSTYYADSVKGRFTISRDNAKNTVYLQMNSLKPEDTAVYYCNADRYYSHYSYYYWGQGTQVTVSS”, the “polyreactivity (PSR sort gate)” value is “high polyreactivity”. The same measure for “QVQLVESGGGLVQAGGSLRLSCAASGSIFRRYAMGWYRQAPGKERELVAAITNGGGSTYYADSVKGRFTISRDNAKNTVYLQMNSLKPEDSAVYYCARRLASNYGAYDYWGQGTQVTVSS”: “low polyreactivity”; for “QVQLVESGGGLVQAGGSLRLSCAASGSIFRRYAMGWYRQAPGKERELVASITSSVGRTYYADSVKGRFTISRDNAKNTVYLQMNSLKPEDTAVYYCAVYVGRWGAGGKGDYWGQGTQVTVSS”: “low polyreactivity”; for “QVQLVESGGGLVQAGGSLRLSCAASGSIFRRYAMGWYRQAPGKESELVAAITWGGGRTYYADSVKGRFTISRDNAKNTVYLQMNSLKPEDTAVYYCNAERSVYASGKSYLYDYWGQGTQVTVSS”: “high polyreactivity”.

For “QVQLVESGGGLVQAGGSLRLSCAASGSIFRRYDMGWYRQAPGKERELVAAISSSGGSTYYADSVKGRFTISRDNAKNTVYLQMNSLKPEDTAVYYCAADIYDDDRSEYTEYDYWGQGTQVTVSS”, the “polyreactivity (PSR sort gate)” value is given as “low polyreactivity”. The result for “QVQLVESGGGLVQAGGSLRLSCAASGSIFRRYTMGWYRQAPGKERELVAAISRVGNTNYADSVKGRFTISRDNAKNTVYLQMNSLKPEDTAVYYCAADLYWLLYDEDWYWWEYESDSWGQGTQVTVSS” reads “high polyreactivity”; that for “QVQLVESGGGLVQAGGSLRLSCAASGSIFRSNAMGWYRQAPGKERELVAVIRSGGTTNYADSVKGRFTISRDNAKNTVYLQMNSLKPEDTAVYYCAAYGAHGGVIVVEGDYWGQGTQVTVSS”, “low polyreactivity”; that for “QVQLVESGGGLVQAGGSLRLSCAASGSIFRSNAMGWYRQAPGQERELVAAISRSGGRTYYADSVKGRFTISRDNAKNTVYLQMNSLKPEDTAVYYCAAQVVRSLKYEYWGQGTQLTVSS”, “high polyreactivity”. Turning to “QVQLVESGGGLVQAGGSLRLSCAASGSIFRSYAMGWYRQAPGKERELDAAISRRGSSTYYADSVKGRFTISRDIAKNTVYLQMISLKPEDSAVYYCNRVRYPRVDYWGQGTQVTVSS”, the “polyreactivity (PSR sort gate)” value is given as “high polyreactivity”. The result for “QVQLVESGGGLVQAGGSLRLSCAASGSIFRSYAMGWYRQAPGKERELVASISRRGGSTYYADSVKGRFTISRDNAKNTVYLQMNSLKPEDTAVYYCAADHYHGYWKYDYWGQGTQVTVSS” reads “low polyreactivity”. Take “QVQLVESGGGLVQAGGSLRLSCAASGSIFRSYAMGWYRQSPGKERELVAAITRSGGSTYYADSVKGRFTISRDNAKNTVDLQMNSLKPEDTAVYYCAAEYYSYTWGWGHGYWGQGTQVTVSS”: the “polyreactivity (PSR sort gate)” value was “high polyreactivity”. The result for “QVQLVESGGGLVQAGGSLRLSCAASGSIFRTNAMGWYRQAPGKEREFVASISSDSGNTYYADSVKGRFTISRDNAKNTVYLQMNSLKPEDTAVYYCARRKVRYWSYRAANYYWGQGTQVTVSS” reads “low polyreactivity”; that for “QVQLVESGGGLVQAGGSLRLSCAASGSIFRTNAMGWYRQAPGKEREYVATISSDSGNTYYADSVKGRFTISRDNAKNTVYLQMNSLKPEDTAVYYCARRKVRYWSYRAANYYWGQGTQVTVSS”, “low polyreactivity”. With “QVQLVESGGGLVQAGGSLRLSCAASGSIFRVNAMGWYRQAPGKERELVAAITDGGITNYADSVKGRFTISRDNAKNTVYLQMNSLKPEETAVYYCAADTDRDFHYVVPTYDYWGQGTQVTVSS”, the “polyreactivity (PSR sort gate)” value is “low polyreactivity”. For “QVQLVESGGGLVQAGGSLRLSCAASGSIFRVYAMGWYRHAPGKERELVATITSSGGFTYADSVKGRFTISRDNAKNTVYLQMNSLKQEDTAVYYCATVRFGQYWVPSGYSWGYTYDYWGQGTQVTVSS”, the “polyreactivity (PSR sort gate)” value is on record as “high polyreactivity”. As to “QVQLVESGGGLVQAGGSLRLSCAASGSIFRVYAMGWYRQAPGKEREFVAAISYSTGSTYADSVKGRFTISRDNAKNTVYLQMNSLKPEDTAVYYCNARFRYGSRDEYDYWGQGTQVTVSS”, the “polyreactivity (PSR sort gate)” value was “low polyreactivity”. On to “QVQLVESGGGLVQAGGSLRLSCAASGSIFRVYAMGWYRQAPGKERELVAAITRGGSTYADSVKGRFTISRDNAKNTVYLQMNSLKPEDTAVYYCAAQRTLYRSGFDSWGQGTQVTVSS”, for which the “polyreactivity (PSR sort gate)” value is “high polyreactivity”. For the sequence “QVQLVESGGGLVQAGGSLRLSCAASGSIFRVYAMGWYRQAPGKERELVAVISIAGRTNYADSVKGRFTISRDNAKNTVYLQMNSLKPEDTAVYYCNAEWDLNHLYDSWGQGTQVTVSS”, the “polyreactivity (PSR sort gate)” value is listed as “low polyreactivity”. The result for “QVQLVESGGGLVQAGGSLRLSCAASGSIFRVYAMRWYRQAPGKERELVAAISKSGSSTYYADSVKGRFTISRDNAKNTVYLQMNSLKPEDTAVYYCAARRVLGEYGYWGQGTQVTVSS” reads “high polyreactivity”; that for “QVQLVESGGGLVQAGGSLRLSCAASGSIFRWNAMGWYRQAPGKERDLVDVINSSVGSTYYADSVKGRFTISRDNAKNTVYLQMYSLKPEDTAVYYCAADVELGWGNSVAYEYWGQGTQVTVSS”, “low polyreactivity”. The result for “QVQLVESGGGLVQAGGSLRLSCAASGSIFRWYAMGWYRQAPGKERDLVAAITWSGGRTYYADSVKGRFTISRDNAKNTVYLQMNSLKPEDTAVYDCAKPALVTSYRVGYNYWGQGTQVTVSS” reads “high polyreactivity”; that for “QVQLVESGGGLVQAGGSLRLSCAASGSIFRWYAMGWYRQAPGKERELVASISSGTRTNYADSVKGRFTISRDNAKNTVYLQMNSLKPEDTAVYYCAAPYVKRWWGYGYWGQGTQVTVSS”, “high polyreactivity”; that for “QVQLVESGGGLVQAGGSLRLSCAASGSIFRWYAMGWYRQAPGKERELVAVISYGGGSTYYADSVKGRFTISRDNAKNTVYLQMNSLKPEDTAVYYCAADPTWRYYYHYTYYYWGQGTQVTVSS”, “high polyreactivity”. The same measure for “QVQLVESGGGLVQAGGSLRLSCAASGSIFRWYDMGWYRQAPGKERELVAAITWSGSTYYADSVKGRFTISRDNAKNTVYLQMNSLKPEDTAVYYCAAGSRYCNAETYSWYDYWGQGTQVTVSS”: “high polyreactivity”. In the case of “QVQLVESGGGLVQAGGSLRLSCAASGSIFRWYDMGWYRQAPGKERELVAAITWSGSTYYADSVKGRFTISRDNAKNTVYLQMNSLKPEDTAVYYCAAGSRYSYAYTMDYWGQGTQVTVSS”, the “polyreactivity (PSR sort gate)” value is given as “high polyreactivity”.

In the case of “QVQLVESGGGLVQAGGSLRLSCAASGSIFRYNAMGWYRQAPGKEREFVAIISYAGVRTYYADSVKGRFTISRDNAKNTVYLQMNSLKPEDTAVYYCAADFKQKGHRTRTTYWGQGTQVTVSS”, the “polyreactivity (PSR sort gate)” value is “high polyreactivity”. The result for “QVQLVESGGGLVQAGGSLRLSCAASGSIFRYNAMGWYRQAPGKERELVAAISWSGGSTYYADSVKGRFTISRDNAKNTVYLQMNSLKPEDTAVYYCATRYYVNVPGRRYGYWGQGTQVTVSS” reads “low polyreactivity”. In the case of “QVQLVESGGGLVQAGGSLRLSCAASGSIFRYNAMGWYRQAPGKERELVASISISDGSTYYADSVKGRFTISRDNAKNTVYLQMNSLKPEDTAVYYCAARTRDFYYPYDYWGQGTQVTVSS”, the “polyreactivity (PSR sort gate)” value was “low polyreactivity”. The result for “QVQLVESGGGLVQAGGSLRLSCAASGSIFRYNAMGWYRQAPGKERELVAVITSTGSTSYADSVKGRFTISRDNAKNTVYLQMNSLKPEDTAVYYCAATRERHYSYQYLVPYYYWGQGTQVTVSS” reads “high polyreactivity”; that for “QVQLVESGGGLVQAGGSLRLSCAASGSIFRYYAMGWYIQAPGKERELVASITRGGTRTYYADSVKGRFTISRDYAQNTVYLQMNSLKPEDTAVYYCAATYAWYVAPTYDYWGQGTQVTVSS”, “high polyreactivity”; that for “QVQLVESGGGLVQAGGSLRLSCAASGSIFRYYAMGWYRQAPGKEREFVASITYRGGRTYYADSVKGRFTISRDNAKNTVYLQLNSLKPEDTAVYYCAARTRAGAWTSKYLDYWGQGTQVTVSS”, “high polyreactivity”. For “QVQLVESGGGLVQAGGSLRLSCAASGSIFRYYAMGWYRQAPGKERELVAAIRWSGGRTYYADSVKGRFTISRDNAKNTVYLQMNSLKPEDTAVYYCAADQPDYKTNVRYYYWGQGTQVTVSS”, the “polyreactivity (PSR sort gate)” value was “high polyreactivity”. The same measure for “QVQLVESGGGLVQAGGSLRLSCAASGSIFRYYAMGWYRQAPGKERELVAAISRRGSSTYYPDSVKGRFTISRDNAKNTVYLQMNSLKPEDTAVYYCATAYRGRAWGYDYWGQGTQVTVSS”: “high polyreactivity”; for “QVQLVESGGGLVQAGGSLRLSCAASGSIFRYYAMGWYRQAPGKERELVAAISSSGGSTYYADSVKGRFTISRDNAKNTVYLQMNSLKPEDTAVYYCARDWPSYYARQYDYWGQGTQVTVSS”: “high polyreactivity”. Regarding “QVQLVESGGGLVQAGGSLRLSCAASGSIFRYYAMGWYRQAPGKERELVAGISRSGGSTYYADSEKGRFTISRDNAKNTVYLQMNSLKPEDTAVYYCAATAYSPRGKRYDSWGQVTQVTVSS”, the “polyreactivity (PSR sort gate)” value is “high polyreactivity”. In the case of “QVQLVESGGGLVQAGGSLRLSCAASGSIFRYYAMGWYRQAPGKERESVADITSSGGSTYYADSVKGRFTISRDNAKNTVYLQMNSLKPEDTAVSYCAREDNLRHQSDSRYDYWGQGTQVTVSS”, the “polyreactivity (PSR sort gate)” value is reported as “low polyreactivity”. The result for “QVQLVESGGGLVQAGGSLRLSCAASGSIFRYYDMGWYRQAPGKERELVAAISWSGGTTYYADSVKGRFTISRDNAKNSVYLQMNSLNPEDTAVYYCNRVRYPSFVYWGQGTQVTVSS” reads “high polyreactivity”; that for “QVQLVESGGGLVQAGGSLRLSCAASGSIFRYYDMGWYRQAPGKERELVAAISWSGGTTYYADSVKGRFTISRDNAKNTVYLQMNSLKPEDTAVYYCNRVRYPSYDYWGQGTQVTVSS”, “high polyreactivity”. The same measure for “QVQLVESGGGLVQAGGSLRLSCAASGSIFRYYDMGWYRQAPGKERELVAAITYSGGGTYYADSLKGRFTISRDNAKNTVYLQMNSLKPEDTAVYYCAAEPYYGWQRLDYWGQGTQVTVSS”: “low polyreactivity”.

For the sequence “QVQLVESGGGLVQAGGSLRLSCAASGSIFRYYTMGWYRQAPGKERELVARISSSGSTNYADSVKGRFTISRDNAKNTVYLQMNSLKPEDTAVYYCAARSFSWAGYYYWGQGTQVTVSS”, the “polyreactivity (PSR sort gate)” value is “low polyreactivity”.
